Patent US20240117018A1

Columns and labels:
Test in all cases: cell-based or functional assay
[1] = target: HIV-1 Env of pseudovirus 191955_A11 (HIV-1)
[2] = target: HIV-1 Env of pseudovirus 3016.v5.c45 (HIV-1)
[3] = target: HIV-1 Env of pseudovirus 3103.v3.c10 (HIV-1)
[4] = target: HIV-1 Env of pseudovirus 620345.c01 (HIV-1)
[5] = target: HIV-1 Env of pseudovirus 62357_14_D3_4589 (HIV-1)
[6] = target: HIV-1 Env of pseudovirus 6952.v1.c20 (HIV-1)
[7] = target: HIV-1 Env of pseudovirus AC10.0.29 (HIV-1)
[8] = target: HIV-1 Env of pseudovirus BJOX028000.10.3 (HIV-1)
[9] = target: HIV-1 Env of pseudovirus CAP210.2.00.E8 (HIV-1)
[10] = target: HIV-1 Env of pseudovirus CNE20 (HIV-1)
[11] = target: HIV-1 Env of pseudovirus Ce1086_B2 (HIV-1)
[12] = target: HIV-1 Env of pseudovirus Ce1172_H1 (HIV-1)
[13] = target: HIV-1 Env of pseudovirus Du172.17 (HIV-1)
[14] = target: HIV-1 Env of pseudovirus Du422.1 (HIV-1)
[15] = target: HIV-1 Env of pseudovirus PVO.4 (HIV-1)
[16] = target: HIV-1 Env of pseudovirus Q259.d2.17 (HIV-1)
[17] = target: HIV-1 Env of pseudovirus R1166.c01 (HIV-1)
[18] = target: HIV-1 Env of pseudovirus T250-4 (HIV-1)
[19] = target: HIV-1 Env of pseudovirus X1254_c3 (HIV-1)
[20] = target: HIV-1 Env of pseudovirus X2088_c9 (HIV-1)
[21] = target: MuLV envelope (negative control pseudovirus) (MuLV)

N49P7YTE (antibody)
IC50 (Titer in TZM.bl cells) [1]: 39 µg/mL | IC80 (Titer in TZM.bl cells) [1]: > 50 µg/mL | MPI [1]: 56 | IC50 (Titer in TZM.bl cells) [2]: 1.15 µg/mL | IC80 (Titer in TZM.bl cells) [2]: 9.65 µg/mL | MPI [2]: 89 | IC50 (Titer in TZM.bl cells) [3]: 0.322 µg/mL | IC80 (Titer in TZM.bl cells) [3]: 0.583 µg/mL | MPI [3]: 100 | IC50 (Titer in TZM.bl cells) [4]: > 50 µg/mL | IC80 (Titer in TZM.bl cells) [4]: > 50 µg/mL | MPI [4]: 0 | IC50 (Titer in TZM.bl cells) [5]: 0.039 µg/mL | IC80 (Titer in TZM.bl cells) [5]: 0.173 µg/mL | MPI [5]: 100 | IC50 (Titer in TZM.bl cells) [6]: > 50 µg/mL | IC80 (Titer in TZM.bl cells) [6]: > 50 µg/mL | MPI [6]: 13 | IC50 (Titer in TZM.bl cells) [7]: > 50 µg/mL | IC80 (Titer in TZM.bl cells) [7]: > 50 µg/mL | MPI [7]: 28 | IC50 (Titer in TZM.bl cells) [8]: 0.018 µg/mL | IC80 (Titer in TZM.bl cells) [8]: 0.155 µg/mL | MPI [8]: 100 | IC50 (Titer in TZM.bl cells) [9]: 3.11 µg/mL | IC80 (Titer in TZM.bl cells) [9]: 13.9 µg/mL | MPI [9]: 99 | IC50 (Titer in TZM.bl cells) [10]: 0.11 µg/mL | IC80 (Titer in TZM.bl cells) [10]: 0.317 µg/mL | MPI [10]: 99 | IC50 (Titer in TZM.bl cells) [11]: 0.113 µg/mL | IC80 (Titer in TZM.bl cells) [11]: 0.53 µg/mL | MPI [11]: 99 | IC50 (Titer in TZM.bl cells) [12]: > 50 µg/mL | IC80 (Titer in TZM.bl cells) [12]: > 50 µg/mL | MPI [12]: 12 | IC50 (Titer in TZM.bl cells) [13]: 0.283 µg/mL | IC80 (Titer in TZM.bl cells) [13]: 0.953 µg/mL | MPI [13]: 100 | IC50 (Titer in TZM.bl cells) [14]: 13.2 µg/mL | IC80 (Titer in TZM.bl cells) [14]: > 50 µg/mL | MPI [14]: 76 | IC50 (Titer in TZM.bl cells) [15]: 0.088 µg/mL | IC80 (Titer in TZM.bl cells) [15]: 0.394 µg/mL | MPI [15]: 100 | IC50 (Titer in TZM.bl cells) [16]: 5.34 µg/mL | IC80 (Titer in TZM.bl cells) [16]: 44.1 µg/mL | MPI [16]: 82 | IC50 (Titer in TZM.bl cells) [17]: 0.232 µg/mL | IC80 (Titer in TZM.bl cells) [17]: 0.782 µg/mL | MPI [17]: 100 | IC50 (Titer in TZM.bl cells) [18]: > 50 µg/mL | IC80 (Titer in TZM.bl cells) [18]: > 50 µg/mL | MPI [18]: 43 | IC50 (Titer in TZM.bl cells) [19]: 26.2 µg/mL | IC80 (Titer in TZM.bl cells) [19]: > 50 µg/mL | MPI [19]: 59 | IC50 (Titer in TZM.bl cells) [20]: 0.329 µg/mL | IC80 (Titer in TZM.bl cells) [20]: 1.06 µg/mL | MPI [20]: 100 | IC50 (Titer in TZM.bl cells) [21]: > 50 µg/mL | IC80 (Titer in TZM.bl cells) [21]: > 50 µg/mL | MPI [21]: 4

N49P7-54TY (antibody)
IC50 (Titer in TZM.bl cells) [1]: 3.04 µg/mL | IC80 (Titer in TZM.bl cells) [1]: > 25 µg/mL | MPI [1]: 72 | IC50 (Titer in TZM.bl cells) [2]: 0.206 µg/mL | IC80 (Titer in TZM.bl cells) [2]: 1.91 µg/mL | MPI [2]: 92 | IC50 (Titer in TZM.bl cells) [3]: 0.151 µg/mL | IC80 (Titer in TZM.bl cells) [3]: 0.55 µg/mL | MPI [3]: 100 | IC50 (Titer in TZM.bl cells) [4]: > 25 µg/mL | IC80 (Titer in TZM.bl cells) [4]: > 25 µg/mL | MPI [4]: 0 | IC50 (Titer in TZM.bl cells) [5]: 0.055 µg/mL | IC80 (Titer in TZM.bl cells) [5]: 0.192 µg/mL | MPI [5]: 100 | IC50 (Titer in TZM.bl cells) [6]: > 25 µg/mL | IC80 (Titer in TZM.bl cells) [6]: > 25 µg/mL | MPI [6]: 20 | IC50 (Titer in TZM.bl cells) [7]: > 25 µg/mL | IC80 (Titer in TZM.bl cells) [7]: > 25 µg/mL | MPI [7]: 40 | IC50 (Titer in TZM.bl cells) [8]: 0.009 µg/mL | IC80 (Titer in TZM.bl cells) [8]: 0.044 µg/mL | MPI [8]: 100 | IC50 (Titer in TZM.bl cells) [9]: 0.691 µg/mL | IC80 (Titer in TZM.bl cells) [9]: 3.33 µg/mL | MPI [9]: 97 | IC50 (Titer in TZM.bl cells) [10]: 0.046 µg/mL | IC80 (Titer in TZM.bl cells) [10]: 0.16 µg/mL | MPI [10]: 100 | IC50 (Titer in TZM.bl cells) [11]: 0.067 µg/mL | IC80 (Titer in TZM.bl cells) [11]: 0.339 µg/mL | MPI [11]: 100 | IC50 (Titer in TZM.bl cells) [12]: > 25 µg/mL | IC80 (Titer in TZM.bl cells) [12]: > 25 µg/mL | MPI [12]: 23 | IC50 (Titer in TZM.bl cells) [13]: 0.124 µg/mL | IC80 (Titer in TZM.bl cells) [13]: 0.529 µg/mL | MPI [13]: 100 | IC50 (Titer in TZM.bl cells) [14]: 0.402 µg/mL | IC80 (Titer in TZM.bl cells) [14]: 2.02 µg/mL | MPI [14]: 96 | IC50 (Titer in TZM.bl cells) [15]: 0.079 µg/mL | IC80 (Titer in TZM.bl cells) [15]: 0.314 µg/mL | MPI [15]: 100 | IC50 (Titer in TZM.bl cells) [16]: 0.132 µg/mL | IC80 (Titer in TZM.bl cells) [16]: 1.13 µg/mL | MPI [16]: 95 | IC50 (Titer in TZM.bl cells) [17]: 0.131 µg/mL | IC80 (Titer in TZM.bl cells) [17]: 0.47 µg/mL | MPI [17]: 100 | IC50 (Titer in TZM.bl cells) [18]: 1.02 µg/mL | IC80 (Titer in TZM.bl cells) [18]: 19.6 µg/mL | MPI [18]: 83 | IC50 (Titer in TZM.bl cells) [19]: 0.145 µg/mL | IC80 (Titer in TZM.bl cells) [19]: 0.599 µg/mL | MPI [19]: 100 | IC50 (Titer in TZM.bl cells) [20]: 0.172 µg/mL | IC80 (Titer in TZM.bl cells) [20]: 0.572 µg/mL | MPI [20]: 100 | IC50 (Titer in TZM.bl cells) [21]: > 25 µg/mL | IC80 (Titer in TZM.bl cells) [21]: > 25 µg/mL | MPI [21]: 0
